{"source": "paper PMC6901930", "target": "Major capsid protein (MCP), Trx fusion (Singapore grouper iridovirus (SGIV-Gx), UniProt Q5YFJ3 1-463)", "test": "EMSA", "settings": "protein: recombinant; tags: Trx-His (pET-32a), 68 kDa", "data": [{"binder": "Q5c (ssDNA) DNA: TATTCGGGTTATTGCTCCTCTTTATTGTCACCTGGATGTATGATCGTGTAG", "values": [{"measurement": "binding result", "value": "binds"}]}]}
